Data on one molecule can be found in PMC7897482, “Ecd promotes U5 snRNP maturation and Prp8 stability” (Nucleic Acids Research, 2021).

The test deals with T1, His::Ecd (Drosophila melanogaster, UniProt Q9W032 1-684).
T1 construct: Ecdysoneless (Ecd), Drosophila melanogaster; cDNA cloned into pET28b; also called His-tagged Ecd; source: E. coli BL21 Rosetta (DE3), purified (Ni Sepharose)
T1 sequence (looked up): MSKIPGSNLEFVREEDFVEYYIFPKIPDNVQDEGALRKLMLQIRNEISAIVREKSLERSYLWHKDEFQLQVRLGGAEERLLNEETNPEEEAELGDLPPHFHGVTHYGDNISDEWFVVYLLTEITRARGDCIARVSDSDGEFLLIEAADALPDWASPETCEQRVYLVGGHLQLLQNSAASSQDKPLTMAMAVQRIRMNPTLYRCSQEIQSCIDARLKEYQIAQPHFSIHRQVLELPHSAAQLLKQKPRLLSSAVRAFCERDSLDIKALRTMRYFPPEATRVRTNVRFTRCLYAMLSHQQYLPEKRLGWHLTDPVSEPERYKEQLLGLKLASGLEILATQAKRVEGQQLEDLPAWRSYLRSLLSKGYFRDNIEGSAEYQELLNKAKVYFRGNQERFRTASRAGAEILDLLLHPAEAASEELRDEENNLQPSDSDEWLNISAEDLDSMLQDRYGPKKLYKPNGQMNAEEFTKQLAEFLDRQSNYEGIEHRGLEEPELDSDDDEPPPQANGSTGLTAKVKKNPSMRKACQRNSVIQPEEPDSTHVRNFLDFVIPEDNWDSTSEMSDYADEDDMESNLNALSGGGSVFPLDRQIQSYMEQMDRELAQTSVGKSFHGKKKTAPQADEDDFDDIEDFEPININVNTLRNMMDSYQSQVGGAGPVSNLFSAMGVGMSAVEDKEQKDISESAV
Kind of test: pull-down; 10 μg of purified His::Ecd and His::SmD3::HA incubated alone or together overnight at 4°C with protein G Dynabeads coupled to rat anti-Ecd N-term antibody; western blot. The conditions noted are these: both partners purified.

B1: His::SmD3::HA (natural protein, Drosophila melanogaster, UniProt O44437 1-151, looked up)
chain: MSIGVPIKVLHEAEGHIITCETITGEVYRGKLIEAEDNMNCQMTQITVTYRDGRTANLENVYIRGSKIRFLILPDMLKNAPMFKKQTGKGLGGTAGRGKAAILRAQARGRGRGGPPGGGRGTGGPPGAPGGSGGRGAWQGGPTGGRGRGGL
notes: Sm ring protein SmD3, Drosophila melanogaster; cDNA cloned into Gateway pDEST17; also called His-tagged SmD3; source: E. coli BL21 Rosetta (DE3), purified (Ni Sepharose)
With B1, the binding result is given as “binds”.
